Data: US20220010003A1 (Boehringer Ingelheim, published 2022)

Columns and labels:
[1] = molecular target: T1, recombinant mouse periostin (mouse, UniProt Q62009-2 24-811, limits assumed); assay: binding ELISA, periostin coated
T1 construct: also called MoPOSTN
T1 sequence (looked up): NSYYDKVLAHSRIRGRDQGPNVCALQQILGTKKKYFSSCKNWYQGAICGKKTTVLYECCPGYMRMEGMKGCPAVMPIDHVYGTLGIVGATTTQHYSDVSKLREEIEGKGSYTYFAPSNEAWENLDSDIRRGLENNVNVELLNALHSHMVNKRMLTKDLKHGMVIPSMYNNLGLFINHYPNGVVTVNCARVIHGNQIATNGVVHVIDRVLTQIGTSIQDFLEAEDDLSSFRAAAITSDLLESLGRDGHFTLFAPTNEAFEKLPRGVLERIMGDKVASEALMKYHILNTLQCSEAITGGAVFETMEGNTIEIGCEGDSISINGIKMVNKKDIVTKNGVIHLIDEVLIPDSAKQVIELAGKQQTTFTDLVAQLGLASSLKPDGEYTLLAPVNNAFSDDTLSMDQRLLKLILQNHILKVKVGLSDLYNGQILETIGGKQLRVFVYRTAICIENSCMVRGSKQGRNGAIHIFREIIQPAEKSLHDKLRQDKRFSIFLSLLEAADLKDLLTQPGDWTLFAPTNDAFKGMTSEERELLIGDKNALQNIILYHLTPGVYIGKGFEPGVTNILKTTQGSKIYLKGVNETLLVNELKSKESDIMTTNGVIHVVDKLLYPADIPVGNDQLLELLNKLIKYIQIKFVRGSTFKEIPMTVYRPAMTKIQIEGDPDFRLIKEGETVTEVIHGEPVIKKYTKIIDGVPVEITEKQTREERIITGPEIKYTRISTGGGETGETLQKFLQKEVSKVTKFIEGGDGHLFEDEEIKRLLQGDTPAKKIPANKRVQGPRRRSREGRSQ

[2] = molecular target: T2, recombinant human periostin (human, UniProt Q15063 22-836); assay: binding ELISA, periostin coated
T2 construct: also called HuPOSTN; POSTN
T2 sequence: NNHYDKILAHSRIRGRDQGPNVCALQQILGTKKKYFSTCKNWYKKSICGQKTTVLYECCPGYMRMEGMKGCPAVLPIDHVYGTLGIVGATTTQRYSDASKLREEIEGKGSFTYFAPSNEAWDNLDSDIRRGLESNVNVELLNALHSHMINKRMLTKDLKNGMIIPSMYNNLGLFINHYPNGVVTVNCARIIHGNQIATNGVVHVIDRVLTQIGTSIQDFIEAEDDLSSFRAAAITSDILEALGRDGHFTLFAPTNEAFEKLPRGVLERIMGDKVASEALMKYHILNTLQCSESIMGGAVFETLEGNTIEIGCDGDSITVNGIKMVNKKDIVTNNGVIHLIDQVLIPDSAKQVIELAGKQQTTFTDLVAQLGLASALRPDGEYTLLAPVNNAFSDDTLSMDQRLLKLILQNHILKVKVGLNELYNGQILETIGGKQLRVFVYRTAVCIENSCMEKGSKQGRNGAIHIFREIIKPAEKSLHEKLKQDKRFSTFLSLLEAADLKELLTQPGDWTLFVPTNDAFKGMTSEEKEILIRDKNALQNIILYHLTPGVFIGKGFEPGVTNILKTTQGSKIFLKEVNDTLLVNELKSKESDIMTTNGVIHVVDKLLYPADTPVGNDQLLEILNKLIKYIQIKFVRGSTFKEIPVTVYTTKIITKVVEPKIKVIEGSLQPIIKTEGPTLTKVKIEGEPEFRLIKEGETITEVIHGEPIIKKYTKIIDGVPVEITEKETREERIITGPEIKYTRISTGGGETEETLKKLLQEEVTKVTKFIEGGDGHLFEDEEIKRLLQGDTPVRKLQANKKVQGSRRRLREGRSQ

[3] = molecular target: T3, recombinant rat periostin (rat, UniProt A0A8I6AHK0 24-838); assay: BLI (Octet Red), NB0828 captured on anti-human Fc (AHC) biosensors, periostin titrated from 100 nM
T3 construct: also called RatPOSTN
Protocol: (§1) NB0828's binding affinity was determined across human, mouse, rat, and cyno species. NB0828 affinities were determined using the octet red system. Briefly, anti-human Fc (AHC) biosensors were used to capture NB0828, followed by association of titrating amounts of either recombinant human, mouse, rat, or cyno periostin (100 nM→0 nM; 1:2 dilutions). Recombinant human, mouse, and rat periostin was purchased commercially from R&D systems, whereas cyno periostin was made internally.

[4] = molecular target: T2, recombinant human periostin; assay: as above
Protocol: as §1

[5] = molecular target: T3, recombinant rat periostin; assay: BLI (Octet Red); Table 6 ties the high end of the range to rat periostin
Protocol: as §1

B1: NB0828 (antibody, V domains shown)
VH: QVQLVQSGAEVKKPGASVKVSCKASGYTFTSYGISWVRQAPGQGLEWMGWISAYNGNTNYAQKLQGRVTMTTDTSTSTAYMELRSLRSDDTAVYYCARDMLVVPFDYWGQGTLVTVSS
VL: QSVLTQSSSASGTPGQTVTVSCSGSSSDIGSNRVNWYQQLPGTAPKLLIYSNDQRPSGVPDRFSGSKSGTSASLAISGLQSADEADYYCAAWDDSLSTYVFGSGTKVTVL
- EC50 [1]: 0.15 nM
- EC50 [2]: 0.12 nM
- Kd [3]: 0.54 nM
- koff [3]: 0.000393 s⁻¹
- kon [3]: 727000 M⁻¹ s⁻¹
- Kd [4]: 0.351 nM
- koff [4]: 0.000246 s⁻¹
- kon [4]: 702000 M⁻¹ s⁻¹
- Kd [5]: 0.5 nM
